From the DeepSol protein solubility set

Assay: soluble on expression in E. coli; label from the status in PepcDB or PDB records

Row | Sequence | soluble on expression in E. coli
1 | MQIVTDKNKVALYYKDIAVTYKEFILNTKKIKQFTKIKEFTNNMIYMENRPELLYSFFAIWDSRATCVCIDASSTAVELTYYIDNSDVVKIFTTKMQVEKVKGALSILSKQIEIIVVDEINLSEIKIDENSSENLVINSPEKEDTALILYTSGTTGKPKGVMLTFDLEHHHHHH | not soluble
2 | PLLIKNGEIITADSRYKADIYAEGETITRIGQNLEAPPGTEVIDATGKYVFPGFIDPHVHIYLPFMATFAKDTHETGSKAALMGGTTTYIEMCCPSRNDDALEGYQLWKSKAEGNSYCDYTFHMAVSKFDEKTEGQLREIVADGISSFKIFLSYKNFFGVDDGEMYQTLRLAKELGVIVTAHCENAELVGRLQQKLLSEGKTGPEWHEPSRPEAVEAEGTARFATFLETTGATGYVVHLSCKPALDAAMAAKARGVPIYIESVIPHFLLDKTYAERGGVEAMKYIMSPPLRDKRNQKVLWDALAQGFIDTVGTDHCPFDTEQKLLGKEAFTAIPNGIPAIEDRVNLLYTYGVSRGRLDIHRFVDAASTKAAKLFGLFPRKGTIAVGSDADLVVYDPQYRGTISVKTQHVNNDYNGFEGFEIDGRPSVVTVRGKVAVRDGQFVGEKGWGKLLRREPMYF | soluble
3 | MSDKKDFENNYEKTEDAWPIGVELVEHEISTGIWVTTQWQLTGFALNPTEETPDVCLLQLHKDERTDYRFNLSSQQPKLFLVMDNVESGEKPAIQLLTASQSVAAQYMDGDNLVLSNDMPLAVQAWMEAFIGRHGELLEVRRKKRKGAGRANGN | not soluble
4 | MEIVYKPLDIRNEEQFASIKKLIDADLSEPYSIYVYRYFLNQWPELTYIAVDNKSGTPNIPIGCIVCKMDPHRNVRLRGYIGMLAVESTYRGHGIAKKLVEIAIDKMQREHCDEIMLETEVENSAALNLYEGMGFIRMKRMFRYYLNEGDAFKLILPLTEKSCTRSTFLMHGRLAT | not soluble
5 | MAHHHHHHMPFTEVYGVEQFRDIANDPTLTVVCFSAVWCGPCKTIEKDLDRLTYEFASVRFAKVDADNNTDIVSKCRVMQLPTFMLVRAGQMLGYVIGADLAQLKAKIREEANKS | soluble
6 | MKTKLMTLQDATGFFRDGMTIMVGGFMGIGTPSRLVEALLESGVRDLTLIANDTAFVDTGIGPLIVNGRVRKVIASHIGTNPETGRRMISGEMDVVLVPQGTLIEQIRCGGAGLGGFLTPTGVGTVVEEGKQTLTLDGKTWLLERPLRADLALIRAHRCDTLGNLTYQLSARNFNPLIALAADITLVEPDELVETGELQPDHIVTPGAVIDHIIVSQESK | soluble
7 | MGSDKIHHHHHHMAQALYANVAVVNSKEHKDLKIKPINHFRYAAKIQSCPISDIEFFPCSLSHPIMFAKAEDGKIVPLALMGLERETNQFVSSEGVWKEGEYMPAFLRRYPFIMVRDPENTRMVVGLDMDAEGVNRDEGRELFDEKSEASEFAKSAMKFLTDFQEAFDRTQNFLAKMSELELFDDAVFNWEFKGVTSSFGGFMRIDEKKLDELDDETLLALTRSGHYKLIVAHLVSLRRFQRLVDWKMRPAS | not soluble
8 | MGGFGLKYRPVPIKRVLPGSIAQESDLQEGDLILSINGQKISDIFDYRFLIADENLVLEVQKKNGEIWEIEIEKDEYEDLGIEFENLMIDDTKSCRNKCIFCFIDQLPKGMRETLYFKDDDSRLSFFMGNYVTLTNMSYDDIDRIIKYKMSPINVSVHTSNPELRVYMLRNKTAGDVMDKIKRLIEGGIKVNAQIVLVRGVNDGKELDRTLKDLSALYPGLNSISVVPVGITKYREGLYELKPFDMESSREVIKQVEAWQMELLSKYGSRIVFIADEFYIMAGLEIPDYCVYEDFPQIENGVGLVAMLKKEFDDYFEELELKLENKREVSIATGVSSYKYIKEMIDILENKYKNLYVHVYKIKNNFFGENVTVTGLLTGQDIERQLSGKNLGRELLLSESMLKSGERVFLDDYTVEMLEDKLKTKITIVRNNGKDFIEKVLGIVL | soluble
9 | MGSDKIHHHHHHMISDHDGEFGSQNVRAALPSLMALRCFEAAARHEHFSRAADELHLTHGAVSRAVRLLEDDLGVALFERRSRRVFLTDAGRKLAQAVHDGLHLMRQAAHELRTDAARAQRWVLSCEPTLLMRWLIPRWPDFQATYPRVDIHLAAAGGPFSFDHGIDIAIRRNDFAWPAGYHAERLFTERVGPVCRPDRVDTWFSGGRDDRALKRGAPRLHTRTRPDAWKEWAAAAHQPAGSGRGQMFDHFYFSLQAAVAGLGVAIGPWHLVRDDLESEVLVAPMGFVQDGSHYCLLTPEPVKDGSAQSALLDWLRTMA | not soluble
10 | MGSDKIHHHHHHMSLKDYDAARLAQVREEVTAKYAELKAKNLSLDLTRGKPSAEQLDLSNDLLSLPGGDFRTKDGVDCRNYGGLLGIADIRELWAEALGLPADLVVAQDGSSLNIMFDLISWSYTWGNNDSSRPWSAEEKVKWLCPVPGYDRHFTITEHFGFEMINVPMTDEGPDMGVVRELVKDPQVKGMWTVPVFGNPTGVTFSEQTCRELAEMSTAAPDFRIVWDNAYALHTLSDEFPIVHNVIEFAQAAGNPNRFWFMSSTSKITHAGSGVSFFASSKENIEWYASHANVRGIGPNKLNQLAHAQFFGDVAGLKAHMLKHAASLAPKFERVLEILDSRLSEYGVAKWTSPTGGYFISVDVVPGTASRVVELAKEAGIALTGAGSSFPLHNDPNNENIRLAPSLPPVAELEVAMDGFATCVLMAALEV | not soluble
11 | MAHHHHHHMIGSFRIIRLPRTASSLRSLNGGQRSPHDDVVCGRQPQGLEGGRKGESVDGGIRPSFTRVGQLTDTYRTRRAGWLCQRDDRWTERRPFQPAGIFLEGGEEAGRVDLRLTDMQRIYDVGPISAENERFAASTLLYATDEVRSLLVEKEWIKLYCLHGVAAADDECNIAFVDLTEKLEDVKRVLVAWKEKDA | not soluble
12 | PISKMVTAHFVLIHTICHGAWIWHKLKPALERAGHKVTALDMAASGIDPRQIEQINSFDEYSEPLLTFLEKLPQGEKVIIVGEACAGLNIAIAADRYVDKIAAGVFHNSLLPDTVHSPSYTVEKLLESFPDWRDTEYFTFTNITGETITTMKLGFVLLRENLFTKCTDGEYELAKMVMRKGSLFQNVLAQRPKFTEKGYGSIKKVYIWTDQDKIFLPDFQRWQIANYKPDKVYQVQGGDHKLQLTKTEEVAHILQEVADAYA | soluble
13 | MSSVGDFEEIILHDLKPYYHVPGAIHSEGITFVKETGTLLWVDIFKGEVHKVEDIEQPESSHSFFSISRANYGKNASIEYPPNPDELKESVGCIFPILDGASQNEIKQVLFGSKFGIGKLDFSKSEWEYVILYSECPELSTDRAYKLRSNDGNVSPDGKYIYVGLMSDFPFDLEPIGCLLRVDLLAHKIELVWNCLLIPNAIHWDESDQKTMYVTDSLNFTIWKCPGGDLLKRDELIDVKNSNNQSFESPEPDGSAIWFSKDGKHSGFLFITVWSTSKVQMFDLTNGKLLKEFILPEQTPRVSCCCFVGKDLFVTTANAEINDAVRTNTDKNGGCIYKIPNVLDGNVPLESTKRQPLH | soluble
14 | MGSDKIHHHHHHMGDKYLTLSELNLEGQLLGFVGGEPGKYKYLQLAVPSGNVEIKLPKELRRSLSLSLVPGQHIRICGHSKVDSRTSKIKIKAYRVTPIDGCPKQDLPPQIKARIMVCQKGGCLKRGGKGLLSDLEKTLCDRGLLDKVTIEHTSCQKCCNSAPNCVLHLGKKKYKNIHPDAIASLLESHLTE | not soluble
15 | MAHHHHHHMSGGDIWVRRAPIGHPREMTVSTSVNNGPGPQGRHLFAELPINAGGGEVVLGECGTSGPSRSCNAMFSFKPPRHEPLWQPTRLTSPYCVLSANGVQDDFYTSCLSWGKGNIALALRDEVLLFQPSRPLVRLAVLNVQERPRSIISRVTSVAVSRFSDSSCFMGELDGSVGVYASRGDGRLSQTSVFSKPPPPLENTPLAGEAAMTATASVRCLATTDVHPWLVAAGTAAQGLFIFDSRCEKPSAQMVECDTFIALDSKRARKPLSPEDCLSLLSSAEGICGVSWNASGSLVATGGSGGVVNIWSLSQTRAPVQQIKLPNAHTTVKAIAFNPTLPYELAVGGGTNDGMLRLYDVSSSVSYLAWCVSTGCQVTQALYSPDGAFIISAQGLRHDKFTADGRAHSTALRMPNSNGAGVDVHRDSMDALERLTEEFERGMTRNGRTQEELQEPAPSHSGTAMNWAGDTPRTDDSPAFSLVMWRRGTQHRHSVPLGFSNTKPRDRPRSQYIQETERTPLPLFSMYMMTGHRSRPLHLASPFSSTADRGSVASFAGGVDNTIRFWKCFCPRSEAVNWEHRTRASMRAAVTEEDVEGMMAMPLR | not soluble
